Laboratory results: PMC7542365 (mBio, 2020)

Molecular target: T1, A/Serbia/NS-601/2014 H1N1 NA, soluble tetramer with His tag attached (Influenza A virus A/Serbia/NS-601/2014 …, strain)
T1 chain: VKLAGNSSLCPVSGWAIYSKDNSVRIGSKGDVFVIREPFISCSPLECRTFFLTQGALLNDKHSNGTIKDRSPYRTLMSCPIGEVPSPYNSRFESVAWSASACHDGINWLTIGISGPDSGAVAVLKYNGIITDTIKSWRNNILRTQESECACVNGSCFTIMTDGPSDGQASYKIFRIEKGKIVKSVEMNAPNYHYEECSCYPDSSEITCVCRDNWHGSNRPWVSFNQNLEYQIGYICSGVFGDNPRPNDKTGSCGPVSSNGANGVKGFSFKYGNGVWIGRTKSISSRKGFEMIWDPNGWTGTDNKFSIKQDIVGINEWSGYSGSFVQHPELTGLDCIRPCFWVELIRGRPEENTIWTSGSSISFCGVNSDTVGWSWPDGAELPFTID
Experiment: SPR
Settings: both partners purified

B1: Z2B3-D102R Fab (Fab, V domains shown)
VH: EVQLVQSGAEVKKPGSSVKVSCKASGGPFSSYGFSWVRQAPGQGLEWMGGIIPVYGTTNYAQKFQGRVTITADESTSTAYMELSSLKSEDTAVYYCARDLQRTPMVDRIIGSYYYYNGLDVWGQGTTVTVSS
VL: QSVLTQPASVSGSPGQSITISCTGASSDVGDYNYVSWYQQHPGKAPKLMIYDVSNRPSGVSNRFSGSKSGDTASLTISGLQAEDEADYYCSSYTRSSSVVFGGGTKLTVL
For B1, the Kd was 401 nM.
